Measured values: US20210380703A1

B1: 371_B11 (antibody, V domains shown)
VH: EVQLLESGGGLVQPGGSLRLSCAASGFTFSSYSMHWVRQAPGKGLEWVASINYNSGYTSYADSVKGRFTISRDNSKNTLYLQMNSLRAEDTAVYYCARAATWHDTHLDYWGQGTLVTVSS
VL: DIQMTQSPSSLSASVGDRVTITCRASQSILTYLNWYQQKPGKAPKLLIYAATSRASGVPSRFSGSGSGTDFTLTISSLQPEDFATYYCQQSYELPLTFGGGTKVEIK
B2: 374_A12 (antibody, V domains shown)
VH: EVQLLESGGGLVQPGGSLRLSCAASGFTFDSYGMHWVRQAPGKGLEWVSSINYNGGYTSYADSVKGRFTISRDNSKNTLYLQMNSLRAEDTAVYYCARAATWHDTHLDYWGQGTLVTVSS
VL: DIQMTQSPSSLSASVGDRVTITCRASQSILTYLNWYQQKPGKAPKLLIYAATSRASGVPSRFSGSGSGTDFTLTISSLQPEDFATYYCQQSDSNPLTFGGGTKVEIK
B3: 373_B01 (antibody, V domains shown)
VH: EVQLLESGGGLVQPGGSLRLSCAASGFTFDSYGMHWVRQAPGKGLEWVSGINYNGGYKSYADSVKGRFTISRDNSKNTLYLQMNSLRAEDTAVYYCARAATWHDTHLDYWGQGTLVTVSS
VL: DIQMTQSPSSLSASVGDRVTITCRASQSILSYVNWYQQKPGKAPKLVIYAATSRASGVPSRFSGSGSGTDFTLTISSLQPEDFATYYCQQSYDLPLTFGGGTKVEIK
B4: 375_C03 (antibody, V domains shown)
VH: EVQLLESGGGLVQPGGSLRLSCAASGFTFDSYSMHWVRQAPGKGLEWVSGINYNGGYTSYADSVKGRFTISRDNSKNTLYLQMNSLRAEDTAVYYCARAATWHDTHLDYWGQGTLVTVSS
VL: DIQMTQSPSSLSASVGDRVTITCRASQSILSYVNWYQQKPGKAPKLVIYAATSRASGVPSRFSGSGSGTDFTLTISSLQPEDFATYYCQQSYESPLTFGGGTKVEIK
B5: 372_D07 (antibody, V domains shown)
VH: EVQLLESGGGLVQPGGSLRLSCAASGFTFSSYGMNWVRQAPGKGLEWVAGINYNGGYTSYADSVKGRFTISRDNSKNTLYLQMNSLRAEDTAVYYCARAATWHDTHLDYWGQGTLVTVSS
VL: DIQMTQSPSSLSASVGDRVTITCRASQSILSYLNWYQQKPGKAPKLLIYAATSRASGVPSRFSGSGSGTDFTLTISSLQPEDFATYYCQQSYESPLTFGGGTKVEIK
B6: 371_C02 (antibody, V domains shown)
VH: EVQLLESGGGLVQPGGSLRLSCAASGFTFDSYGMHWVRQAPGKGLEWVAGINYNSGYTGYADSVKGRFTISRDNSKNTLYLQMNSLRAEDTAVYYCARAATWHDTHLDYWGQGTLVTVSS
VL: DIQMTQSPSSLSASVGDRVTITCRASQSILTYVNWYQQKPGKAPKLLIYAASSLQSGVPSRFSGSGSGTDFTLTISSLQPEDFATYYCQQSYDTPLTFGGGTKVEIK
B7: 371_D05 (antibody, V domains shown)
VH: EVQLLESGGGLVQPGGSLRLSCAASGFTFDDYGMHWVRQAPGKGLEWVSGINYNGGYTSYADSVKGRFTISRDNSKNTLYLQMNSLRAEDTAVYYCARAATWHDTHLDYWGQGTLVTVSS
VL: DIQMTQSPSSLSASVGDRVTITCRASQSILTYLNWYQQKPGKAPKLLIYAASSLQSGVPSRFSGSGSGTDFTLTISSLQPEDFATYYCQQSYDSPLTFGGGTKVEIK
B8: 365_F02 (antibody, V domains shown)
VH: EVQLLESGGGLVQPGGSLRLSCAASGFTFSSYSMNWVRQAPGKGLEWVSGINYNGGYKGYADSVKGRFTISRDNSKNTLYLQMNSLRAEDTAVYYCARGANWHDTHLDYWGQGTLVTVSS
VL: DIQMTQSPSSLSASVGDRVTITCRASQSILTYVNWYQQKPGKAPKLLIYAATSRHSGVPSRFSGSGSGTDFTLTISSLQPEDFATYYCQQSYDTPLTFGGGTKVEIK
B9: 365_E12 (antibody, V domains shown)
VH: EVQLLESGGGLVQPGGSLRLSCAASGFTFSDYGMNWVRQAPGKGLEWVSNINYNGGYTGYADSVKGRFTISRDNSKNTLYLQMNSLRAEDTAVYYCARGANWHDTALDYWGQGTLVTVSS
VL: DIQMTQSPSSLSASVGDRVTITCRASQSILTYLNWYQQKPGKAPKLLIYAATSRASGVPSRFSGSGSGTDFTLTISSLQPEDFATYYCQQSYETPLTFGGGTKVEIK
B10: 374_A10 (antibody, V domains shown)
VH: EVQLLESGGGLVQPGGSLRLSCAASGFTFSSYGMHWVRQAPGKGLEWVSGINYNGGYTSYADSVKGRFTISRDNSKNTLYLQMNSLRAEDTAVYYCARAATWHDTHLDYWGQGTLVTVSS
VL: DIQMTQSPSSLSASVGDRVTITCRASQSILSYVNWYQQKPGKAPKLLIYAATSRASGVPSRFSGSGSGTDFTLTISSLQPEDFATYYCQQSYDTPLTFGGGTKVEIK
B11: 374_B01 (antibody, V domains shown)
VH: EVQLLESGGGLVQPGGSLRLSCAASGFTFDSYGMHWVRQAPGKGLEWVAGINYNSGYTSYADSVKGRFTISRDNSKNTLYLQMNSLRAEDTAVYYCARAATWHDTHLDYWGQGTLVTVSS
VL: DIQMTQSPSSLSASVGDRVTITCRASQSILSYLNWYQQKPGKAPKLLIYAASSLQSGVPSRFSGSGSGTDFTLTISSLQPEDFATYYCQQSYDSPLTFGGGTKVEIK
B12: 366_A02 (antibody, V domains shown)
VH: EVQLLESGGGLVQPGGSLRLSCAASGFTFDSYGMNWVRQAPGKGLEWVASINYNSGYKGYADSVKGRFTISRDNSKNTLYLQMNSLRAEDTAVYYCARAANWHDTHLDYWGQGTLVTVSS
VL: DIQMTQSPSSLSASVGDRVTITCRASQSIVSYVNWYQQKPGKAPKLLIYAATSRASGVPSRFSGSGSGTDFTLTISSLQPEDFATYYCQQSYDLPLTFGGGTKVEIK
B13: 365_C05 (antibody, V domains shown)
VH: EVQLLESGGGLVQPGGSLRLSCAASGFTFSDYSMNWVRQAPGKGLEWVSGINYNGGYKGYADSVKGRFTISRDNSKNTLYLQMNSLRAEDTAVYYCARGANWHDTHLDYWGQGTLVTVSS
VL: DIQMTQSPSSLSASVGDRVTITCRASQSILTYLNWYQQKPGKAPKLLIYAATSRHSGVPSRFSGSGSGTDFTLTISSLQPEDFATYYCQQSYNSPLTFGGGTKVEIK
B14: 371_F07 (antibody, V domains shown)
VH: EVQLLESGGGLVQPGGSLRLSCAASGFTFSSYGMHWVRQAPGKGLEWVAGINYNGGYTSYADSVKGRFTISRDNSKNTLYLQMNSLRAEDTAVYYCARAATWHDTHLDYWGQGTLVTVSS
VL: DIQMTQSPSSLSASVGDRVTITCRASQSILTYLNWYQQKPGKAPKLLIYAATSLASGVPSRFSGSGSGTDFTLTISSLQPEDFATYYCQQSDSNPLTFGGGTKVEIK
B15: 375_D02 (antibody, V domains shown)
VH: EVQLLESGGGLVQPGGSLRLSCAASGFTFSSYSMNWVRQAPGKGLEWVSNINYNGGYTSYADSVKGRFTISRDNSKNTLYLQMNSLRAEDTAVYYCARAATWHDTHLDYWGQGTLVTVSS
VL: DIQMTQSPSSLSASVGDRVTITCRASQSILTYLNWYQQKPGKAPKLLIYAASSLQSGVPSRFSGSGSGTDFTLTISSLQPEDFATYYCQQSYELPLTFGGGTKVEIK
B16: 375_H04 (antibody, V domains shown)
VH: EVQLLESGGGLVQPGGSLRLSCAASGFTFSSYGMHWVRQAPGKGLEWVAGINYNSGYTGYADSVKGRFTISRDNSKNTLYLQMNSLRAEDTAVYYCARAATWHDTHLDYWGQGTLVTVSS
VL: DIQMTQSPSSLSASVGDRVTITCRASQSILSYLNWYQQKPGKAPKLVIYAATSRASGVPSRFSGSGSGTDFTLTISSLQPEDFATYYCQQSYSNPLTFGGGTKVEIK
B17: 373_G06 (antibody, V domains shown)
VH: EVQLLESGGGLVQPGGSLRLSCAASGFTFSSYGMHWVRQAPGKGLEWVASINYNSGYTGYADSVKGRFTISRDNSKNTLYLQMNSLRAEDTAVYYCARAATWHDTHLDYWGQGTLVTVSS
VL: DIQMTQSPSSLSASVGDRVTITCRASQSILSYVNWYQQKPGKAPKLLIYAATSLASGVPSRFSGSGSGTDFTLTISSLQPEDFATYYCQQSYNLPLTFGGGTKVEIK
B18: 374_B07 (antibody, V domains shown)
VH: EVQLLESGGGLVQPGGSLRLSCAASGFTFSSYGMHWVRQAPGKGLEWVSSINYNGGYKSYADSVKGRFTISRDNSKNTLYLQMNSLRAEDTAVYYCARAATWHDTHLDYWGQGTLVTVSS
VL: DIQMTQSPSSLSASVGDRVTITCRASQSIISYLNWYQQKPGKAPKLLIYAATSLASGVPSRFSGSGSGTDFTLTISSLQPEDFATYYCQQSYESPLTFGGGTKVEIK
B19: 376_F09 (antibody, V domains shown)
VH: EVQLLESGGGLVQPGGSLRLSCAASGFTFDSYSMHWVRQAPGKGLEWVSSINYNGGYKSYADSVKGRFTISRDNSKNTLYLQMNSLRAEDTAVYYCARAATWHDTHLDYWGQGTLVTVSS
VL: DIQMTQSPSSLSASVGDRVTITCRASQSILTYVNWYQQKPGKAPKLLIYAVTSRASGVPSRFSGSGSGTDFTLTISSLQPEDFATYYCQQSYDTPLTFGGGTKVEIK
B20: 366_A04 (antibody, V domains shown)
VH: EVQLLESGGGLVQPGGSLRLSCAASGFTFSSYGMNWVRQAPGKGLEWVAGINYNGGYTSYADSVKGRFTISRDNSKNTLYLQMNSLRAEDTAVYYCARAANWHDTALDYWGQGTLVTVSS
VL: DIQMTQSPSSLSASVGDRVTITCRASQSILTYLNWYQQKPGKAPKLVIYAATSLASGVPSRFSGSGSGTDFTLTISSLQPEDFATYYCQQSDDSPLTFGGGTKVEIK
B21: 376_D08 (antibody, V domains shown)
VH: EVQLLESGGGLVQPGGSLRLSCAASGFTFDSYGMNWVRQAPGKGLEWVANINYNSGYKSYADSVKGRFTISRDNSKNTLYLQMNSLRAEDTAVYYCARAATWHDTALDYWGQGTLVTVSS
VL: DIQMTQSPSSLSASVGDRVTITCRASQSILTYLNWYQQKPGKAPKLVIYYANNRPSGVPSRFSGSGSGTDFTLTISSLQPEDFATYYCQQSYSNPLTFGGGTKVEIK
B22: 373_D11 (antibody, V domains shown)
VH: EVQLLESGGGLVQPGGSLRLSCAASGFTFSSYGMHWVRQAPGKGLEWVAGINYNGGYTSYADSVKGRFTISRDNSKNTLYLQMNSLRAEDTAVYYCARAATWHDTHLDYWGQGTLVTVSS
VL: DIQMTQSPSSLSASVGDRVTITCRASQSILTYVNWYQQKPGKAPKLLIYAATSRASGVPSRFSGSGSGTDFTLTISSLQPEDFATYYCQQSYDNPLTFGGGTKVEIK

What follows are binders tested against human Fc (human) (assay: ELISA, negative control).
Binder B1 has an optical density of 0.549 OD. For B2, the optical density was 0.308 OD. B3 was tested, and the optical density was 0.197 OD. Binder B4 has an optical density of 0.217 OD. B5 showed an optical density of 0.472 OD. In the case of B6, the optical density is reported as 0.372 OD. Work on B7 yielded an optical density of 0.339 OD. In the case of B8, the optical density is reported as 0.326 OD. Binder B9 has an optical density of 0.338 OD. B10 showed an optical density of 0.23 OD. Work on B11 yielded an optical density of 0.173 OD. For B12, the optical density was 0.336 OD. For B13, the optical density was 0.271 OD. Work on B14 yielded an optical density of 0.425 OD. With B15 the optical density was 0.191 OD. B16 was tested, and the optical density was 0.181 OD. For B17, the optical density was 0.196 OD. In the case of B18, the optical density is reported as 0.25 OD. Binder B19 has an optical density of 0.25 OD. In the case of B20, the optical density is reported as 0.319 OD. Work on B21 yielded an optical density of 0.232 OD. B22 was tested, and the optical density was 0.364 OD.
